According to the RNAGym collection of RNA variant scans (doi:10.1073/pnas.2313332121):
This sample holds only a part of the variants without activity.

B1: TPR 5TU (parent)
chain: GGAUCUUCUCGAUCUAACAAAAAAGACAAAUCUGCCACAAAGCUUGAGAGCAUCUUCGGAUGCAGAGGCGGCAGCCUUCGGUGGCGCGAUAGCGCCAACGUUCUCAACUAUGACACGCAAAACGCGUGCUCCGUUGAAUGGAGUUUAUCAUG

Variants of: B1
Experiment: polymerase ribozyme fitness, log enrichment relative to wild type (log ratio); higher = more active; in vitro selection for triplet polymerase activity
Summary of the method: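 Streptavidin-bead capture of gel-excised extended constructs, followed by RT-PCR, closed a single triplicate in vitro selection round. That round began by annealing PCR-built, transcribed mutant libraries of each subunit of a heterodimeric triplet polymerase ribozyme with a biotinylated primer, the partner subunit and triplets, then incubating them frozen at −7 °C. After Illumina sequencing of inputs and outputs, genotypes needed ≥10 input reads and ≥1 read per output. Fitness is the base-2 logarithm of genotype enrichment over wild-type enrichment, using inverse-variance-weighted replicate averages.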

Point of comparison: U4G A20G C35U G94C A97G C118A A137G A142U, “polymerase ribozyme fitness (log ratio)” value -4.11. Against it:
- C5A U9C C10G A26U U90G A137G A142U — lower, ≤ -4.2
- U6C C32U G84A G88C U111C A150U — lower, ≤ -4.2
- C5G A20C — higher, -0.472
- C5G C32A C76A U109G G141C — lower, ≤ -4.2
- U6C A26C A28G — higher, -3.84
- C5A G58A G86U — higher, -1.52
- C5A U7G C32G A115U U146C — lower, ≤ -4.2
- U6A C10A U31A A49C U53A C76G G81A G92A A106G G117A — lower, ≤ -4.2
- U6A C18U A20C A22C U44C U55A C87A — lower, ≤ -4.2
- C5A A21C G74A U82G G92U — lower, ≤ -4.2
- U6C U56G A64C G143U — lower, ≤ -4.2
- U6A U13A C35G A110G A142G — higher, -3.55
- C5G U55G C79G C85U U130G — lower, ≤ -4.2
- C5A A20U C35U A91C U101A C105G U145G — lower, ≤ -4.2
- C5A A20G A22C C35A U77G C87A A115C G124C — lower, ≤ -4.2
- C5U U7G A29C A49G G50C C76A C87U C131A G133A U145G — lower, ≤ -4.2
- U4G C38U C93G — higher, -2.52
- C5G A30U G59A C87G C108U U148A — lower, ≤ -4.2
- U6A A28C U44A U45A A49U C85G U144A — lower, ≤ -4.2
- U4C C96A — higher, -0.253
- U6C C35U G59A A66C G84U C93U A98U G100A A106C A142C — lower, ≤ -4.2
- C5G C32U A91G A115G — lower, ≤ -4.2
- U6C A29U A41C G42U G59C C85U G100U A107G G124A — lower, ≤ -4.2
- C5U C38G A66U G94C — lower, ≤ -4.2
- U6A U53A G86A A91C G128C — lower, ≤ -4.2
- C5A A21C C35U G74C G128U U139G — lower, ≤ -4.2
- C5G C93A — higher, -2.55
- C5U U9G A12C U33G G58A G88A A91G G94A A113C A121C — lower, ≤ -4.2
- U6C C96G C105U — higher, -0.764
- C5U A47C G59A C87U C93U — higher, -3.16
- C5A U44C C76A G84A C131U A150U — lower, ≤ -4.2
- C5U A22U C85A U135A — higher, -0.0168
- C5U A16C G81A U82A G126C — higher, -0.899
- C5U U6G C14U A20C A26U A37C A66U A120G — lower, ≤ -4.2
- U6C C8U A17U A39G G83A U101A — lower, ≤ -4.2
- U4G A52C G83A — higher, -2.69
- U4C C43U C85U G133A G141U — lower, ≤ -4.2
- C5G C105U — higher, -0.0507
- C5G A21C A29U U82A G94A G136C U151C — lower, ≤ -4.2
- U6A G83C A89U G136U A137G — higher, -3.78
- C5A U55G G68C — lower, ≤ -4.2
- U4C A19U G50C C76U U144G — lower, ≤ -4.2
- C5A C57U G59C C96G U101G — higher, -0.41
- C5U G46A A52G C85U A107U C118A A137U — lower, ≤ -4.2
- C5A C54A C57A G58A G68A A89U C95G — lower, ≤ -4.2
- C5A C27U U33G C79A — lower, ≤ -4.2
- U6A G50A A89U G92U A137G — higher, -3.34
- U4C G58A G83A C85U — higher, -1.97
- C5G C85A C116A — higher, 0.0205
- C5G C10A G11A A30U A49C C93U G136A — lower, ≤ -4.2
- U4C C85A — higher, -1.34
- C5G C14G A49G — higher, -3.17
- C5A C14G A22G A49C G50U G58C — within 0.2 log units, -4.18
- C5G C36A G58A A73G C85U — lower, ≤ -4.2
- C5A A20C C96U — higher, -0.294
- C5U U13A A17C C27G A28U A52C C85U A113C U127A U144G — lower, ≤ -4.2
- C5A C93G — higher, -2.32
- U6A C14U A41U G48U — higher, -3.87
- C5G C38G G68C U135A G141A — lower, ≤ -4.2
- C5G U53A U56A G68C G94A C118U U148A A150C — lower, ≤ -4.2
- U4C C87G A107G — lower, ≤ -4.2
- C5G U7A C93U A106C — higher, -3.03
- U4G G42C C76G U90C C93G A113C — lower, ≤ -4.2
- U4C A16U G83U U90C A113U U148C — lower, ≤ -4.2
- U4C C14U G42A G84A C105G — lower, ≤ -4.2
- C5U A22C G83C C93U U101G C116A — higher, -2.06
- U4C G25U C79A C93G U111C — lower, ≤ -4.2
- C5U A20C G59A A60G C69A A98G — higher, -2.12
- C5U A47G C79A A138G — lower, ≤ -4.2
- C5G C10G G92A C123U A138C G143A — lower, ≤ -4.2
- U6A U15G A16U G74A U82G C95U — lower, ≤ -4.2
- U6G A23G U144G — within 0.2 log units, -3.95
- C5A G59C C96A A98U — higher, -0.127
- C5U C38G C57U G84U A106C — higher, -3
- U4G A26U G50U C87A G141A A150U — lower, ≤ -4.2
- U4G U13G C93U A120G G143A U148C — lower, ≤ -4.2
- C5A C76U G84U C125U G141U — higher, -3.64
- C5U A17G A49G U53G C85A A122C G141C — lower, ≤ -4.2
- U4C G25U U61G G86U C93U G133C — lower, ≤ -4.2
- U4G C85U — higher, -0.873
- C5A A16U G59U — higher, -1.5
- C5U C96A — higher, 0.48
- U6C A24U A28C C35U A37U U90G C93A C131U U145C — lower, ≤ -4.2
- C5G U90G C93A C116G A142C — lower, ≤ -4.2
- C5A A22U C75U C76A G88A A89C A91G C105U A119G U144G — lower, ≤ -4.2
- U4G G11C A40U G50C G83U — lower, ≤ -4.2
- U4G G84U A107U G140A — lower, ≤ -4.2
- U4G C35A C79A G94A U148G — lower, ≤ -4.2
- C5G A16G A19G A24U A37G G50C G84U A120C G133U — lower, ≤ -4.2
- C5U U45A A47C G62U C69U — lower, ≤ -4.2
- C5A A113U — higher, -2.74
- U6G A16G A29U C54U G86A U102G — lower, ≤ -4.2
- U6C C14U C38U U61A U145C — within 0.2 log units, -4.04
- U4G C57A A73G C87U — higher, -0.214
- U6A A106G G117C A147U — higher, -0.278
- C5A A23G U33G A66G G83A C87U A113G G124A U127C — higher, -3.78
- U4G A97G C103G — higher, -3.15
- U4G A24C G84U G86U C108U A122G U151C — lower, ≤ -4.2
- C5A U6G G46A U56A U82C C93A A107G C125U G136U — lower, ≤ -4.2
- U4G U6G A22C A73G G83C — lower, ≤ -4.2
- C5A C99U — higher, -0.267
- C5G C32U G84U — higher, -3.82
- C5A G11C C85U A119C C131G G141C — higher, 0.451
- U6C G117C — higher, -0.247
- C5G C32A C57U C99U — lower, ≤ -4.2
- C5U A121G — higher, 0.614
- C5G G48C U77A C85A G100A C103G C125A — lower, ≤ -4.2
- C5A C72U C85U C95U — higher, -0.0103
- U6A A16C A20G G62C A91U A110U — lower, ≤ -4.2
- C5A A89G C95G C132U — higher, -3.03
- C5A A26C A30U A52C G70A G86C — lower, ≤ -4.2
- C5A G11C C32G G92U C99A C125G G136U G141U — lower, ≤ -4.2
- U6A G50C C57A G83U C87A G94A — lower, ≤ -4.2
- U4C C5G U55A C75A G88C G133U — within 0.2 log units, -4.17
- U4C A20U A29U G46C C54U C85U C116U — lower, ≤ -4.2
- U4C C85A C95G A115G — higher, -3.75
- C5A A24C G48U G65C C87U C99U A121G — lower, ≤ -4.2
- C5G A52C G58A C93A C118U — higher, -3.09
- U4C A21G G42A G48C G50C A64U G84C U102G U127A — lower, ≤ -4.2
- C5U U82A C103G A113U A137C U148A — lower, ≤ -4.2
- C5A U9C G42A A52G A66C G74A U82A A89U C123A C129A G133U — lower, ≤ -4.2
- U6A A21U C76A G86U — higher, -2.79
- C5U C8G A12G A19U U55G C87A C96G A147C — lower, ≤ -4.2
- C5A G59A C76U U77A G84A C118G C132G — lower, ≤ -4.2
- C5G U55A G70C C85A C96U U151G — lower, ≤ -4.2
- U4G C14G C76G — lower, ≤ -4.2
- C5A C35A U55A A91G G100U G126A A147G — lower, ≤ -4.2
- U4G G11C U44G — lower, ≤ -4.2
- U4G A73G A97G — higher, 0.0284
- U6C G70A C76G C87A G88A C116A — lower, ≤ -4.2
- C5U C105U A138U — lower, ≤ -4.2
- U4G A12G A22U U53A C72G G100A U111G C125U — lower, ≤ -4.2
- U4C U7G C87A G100A U101A — lower, ≤ -4.2
- U6C A16U A17G C85U A89G — lower, ≤ -4.2
- C5G A23G A49U U77G G86A A137G — lower, ≤ -4.2
- C5U A16U C87A A106C — lower, ≤ -4.2
- U6G A23U C51A U55G A115U — lower, ≤ -4.2
- C5U C10G C35U C75G U102G A107U C118A — lower, ≤ -4.2
- U6A A12G A17C G25C U55G A89G — higher, -3.61
- C5G A24U G81C — higher, -0.313
- U6A C14U U82C G86A — within 0.2 log units, -4.09
- C5G G25C C54A C75G G83U — lower, ≤ -4.2
- U6A A28G G59A C93U C99G C108A G140A G141U — lower, ≤ -4.2
- C5G A16G A21U C93U U101G A110C C116U G124C — lower, ≤ -4.2
- U6C C85G — higher, -2.95
- U6A A41C U45A A49G G59U G86A — lower, ≤ -4.2
- U4C U56G C63U C93G — higher, -3.11
- U4G C10U G83U A98U C105U — higher, -0.982
- U4C A24U G81A C85U A89C — higher, -0.962
- C5G A19U A37U U45A U61A C87U — lower, ≤ -4.2
- U6A C57G C96U G141C — higher, -0.945
- U4C A23C A37G U53A — lower, ≤ -4.2
- U6A A60C A142G — higher, -3.03
- U6C U53A G59A G83A U90G C118U C131U A137G A138C — lower, ≤ -4.2
- U4C G86A — higher, -0.918
- C5G U13A — higher, -1.14
- U6A U55G U139A — lower, ≤ -4.2
- U4C G11U U53C — higher, -2.27
- U6A A37U G124A G126C — higher, -2.83
- U6A C51A G58C C63G C93G U104G U145A U148C — lower, ≤ -4.2
- C5A A17U G83A U146G — higher, -0.599
- U6A A28G A73G C93G C99A C131A — within 0.2 log units, -4.19
- U4G C35G C95G U134A G136U — within 0.2 log units, -4.16
- C5A C57G C75U G86A A91C — within 0.2 log units, -4.01
- C5U U55G C79G C87A A97U A106C — lower, ≤ -4.2
- C5A A28U — within 0.2 log units, -3.92
